Data taken from patent publication US5770396.

What was measured:
rat FcεRI (αβγ2) (rat) [1] = experiment: IgE rosetting assay on cotransfected COS 7 cells
rat FcεRI (αβγ2) (rat) [2] = experiment: IgE rosetting assay, RBL cells (native rat receptor)
rat FcεRI (αβγ2) (rat) [3] = experiment: IgE rosetting assay, COS 7 cells cotransfected with α, β and γ cDNAs (29 transfections)
[4] = molecular target: COS 7 cells cotransfected with the rat α and β subunits (rat); experiment: IgE rosetting assay, COS 7 cells transfected with α and β cDNAs (2 transfections); by the filing no IgE-binding sites reach the surface
[5] = molecular target: rat FcεRI α subunit (rat); experiment: IgE rosetting assay, COS 7 cells transfected with α cDNA alone (2 transfections); by the filing α does not reach the surface without β and γ
rat FcεRI (αβγ2) (rat) [6] = experiment: IgE rosetting assay, cotransfected COS 7 cells; 50 µg/ml rat IgE added 30 minutes before mouse anti-DNP IgE (competitor of mouse anti-DNP IgE)

Substance | expression of IgE binding (% of cells) (rat FcεRI (αβγ2) (rat) [1]) | IgE Binding (rosettes/cells counted) (rat FcεRI (αβγ2) (rat) [2]) | IgE Binding (rosettes/cells counted) (rosettes per 41,238 cells counted) (rat FcεRI (αβγ2) (rat) [3]) | IgE Binding (rosettes/cells counted) (rosettes per 3,504 cells counted) [4] | IgE Binding (rosettes/cells counted) (rosettes per 4,050 cells counted) [5] | IgE Binding (rosettes/cells counted) with inhibitor (rosettes per 7,542 cells counted) (rat FcεRI (αβγ2) (rat) [6])
mouse IgE anti-DNP (antibody) | 5% | 100% | 920 | 0 | 0 | –
non-specific rat IgE (antibody) | – | – | – | – | – | 0
